Experimental data: patent US20210206865A1 (Regeneron, published 2021)

T1: human BCMA on the surface of cell lines (NCI-H929, MM.1S, OPM-2, RPMI-8226, Daudi, Raji, MOLP-8, U266) (human, UniProt Q02223 1-184)
T1 construct: Endogenous BCMA of human myeloma and lymphoma cell lines; also called TNFRSF17; CD269
T1 sequence: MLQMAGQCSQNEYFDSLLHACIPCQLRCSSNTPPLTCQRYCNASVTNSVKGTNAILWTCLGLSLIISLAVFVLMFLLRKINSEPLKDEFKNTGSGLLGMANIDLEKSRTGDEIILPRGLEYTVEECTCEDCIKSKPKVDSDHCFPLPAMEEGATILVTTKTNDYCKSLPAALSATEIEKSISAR


Legend:
[1] = target: T2, cynomolgus CD3 on cells (mfCD3 engineered Jurkat cells, primary cynomolgus CD8+ T cells) (cynomolgus, UniProt Q95LI5 22-198; Q95LI8 22-171); experiment: flow cytometry, mfCD3 engineered Jurkat cells, median EC50, n=2
T2 construct: whole, on cells; The engineered Jurkat line expresses cynomolgus CD3 epsilon and delta in place of the human versions (other chains remain human); primary cynomolgus T cells carry the whole cynomolgus complex; also called Jurkat-mfCD3; Mf (Cyno) CD3
Method: (§1) Flow cytometric analysis was utilized to determine binding of BCMA×CD3 bispecific antibodies to human and cynomolgus CD3 (Jurkat cells, mfCD3 engineered Jurkat cells, primary human CD8+ and cynomolgus CD8+ T cells). Briefly, 1e05 cells/well were incubated in the presence of FACS wash with block (PBS+1% filtered FBS+5% mouse serum) with a serial dilution of BCMA×CD3 and control antibodies for 30 minutes on ice. After incubation, the cells were washed twice with cold FACS wash (PBS+1% filtered FBS) and bound antibody was detected by incubating with Alexa647-conjugated anti-human secondary antibody on ice for an additional 30 minutes. Wells containing no antibody or secondary only were used as a control. For the detection of monkey and human T cells, a cocktail of human and cynomolgus cross-reactive antibodies to CD4, CD8 and CD16 was added to the anti-human secondary. After incubation, cells were washed, re-suspended in 200 μL cold PBS containing 1% filtered FBS and analyzed by flow cytometry on a BD FACS Canto II. Cells were gated by FSC-H by FSC-A to select singlet events, followed by side and forward scatters to select for live events. For monkey T cells, additional gating on CD8+/CD16-cells was performed.
(§2) EC50 values for FACS binding were calculated using 4-parameter non-linear regression analysis in Prism software.

[2] = target: T2, cynomolgus CD3 on cells (mfCD3 …); experiment: flow cytometry, primary cynomolgus CD8+ T cells, median EC50, n=1
Method: as §1, §2

[3] = target: T1, human BCMA on the surface of cell lines …; experiment: flow cytometry, Alexa647 conjugate on Daudi cells
Method: Cells were then washed and fixed for 25 mins at 4° C. using a 50% solution of BD Cytofix (BD, Cat #554655) diluted in PBS. […] After gating for live cells and single cells, the mean fluorescent intensity (MFI) was determined, and MFI values were plotted in Graphpad Prism using a four-parameter logistic equation over a 10-point response curve to calculate EC₅₀s. The zero condition for each dose-response curve is also included in the analysis as a continuation of the two-fold serial dilution and is represented as the lowest dose.

T2 sequence (Q95LI5 22-198, stated change not applied, chain 1 of 2): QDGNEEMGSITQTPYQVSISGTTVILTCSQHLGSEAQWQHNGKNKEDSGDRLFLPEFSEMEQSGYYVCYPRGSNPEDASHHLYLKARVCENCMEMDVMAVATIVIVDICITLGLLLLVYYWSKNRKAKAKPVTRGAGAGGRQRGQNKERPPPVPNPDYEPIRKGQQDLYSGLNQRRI
T2 sequence (Q95LI8 22-171, stated change not applied, chain 2 of 2): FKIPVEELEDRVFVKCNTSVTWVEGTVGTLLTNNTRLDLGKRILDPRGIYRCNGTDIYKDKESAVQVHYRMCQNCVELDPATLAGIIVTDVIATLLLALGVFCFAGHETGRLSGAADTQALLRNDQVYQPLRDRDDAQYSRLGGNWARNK

Binder | EC50 [1] | EC50 [2] | S/N (ratio of mAb25442D-A647 MFI to Isotype-A647 MFI) [3]
bsAb25441D bispecific antibody (REGN5458), anti-BCMA x anti-CD3 (bispecific antibody, human IgG4 S228P, kappa, Anti-BCMA arm from mAb21581, anti-CD3 arm and common light chain from mAb7221G; also called bsAb25441D9; mAb25441D) heavy 1: EVQLVESGGGLVQPGGSLRLSCAASGFTFSNFWMTWVRQAPGKGLEWVANMNQDGSEKYYVDSVKGRFTISRDNAKSSLYLQMNSLRAEDTAVYYCARDREYCISTSCYDDFDYWGQGTLVTVSSASTKGPSVFPLAPCSRSTSESTAALGCLVKDYFPEPVTVSWNSGALTSGVHTFPAVLQSSGLYSLSSVVTVPSSSLGTKTYTCNVDHKPSNTKVDKRVESKYGPPCPPCPAPPVAGPSVFLFPPKPKDTLMISRTPEVTCVVVDVSQEDPEVQFNWYVDGVEVHNAKTKPREEQFNSTYRVVSVLTVLHQDWLNGKEYKCKVSNKGLPSSIEKTISKAKGQPREPQVYTLPPSQEEMTKNQVSLTCLVKGFYPSDIAVEWESNGQPENNYKTTPPVLDSDGSFFLYSRLTVDKSRWQEGNVFSCSVMHEALHNHYTQKSLSLSLGK heavy 2: EVQLVESGGGLVQPGRSLRLSCAASGFTFDDYSMHWVRQAPGKGLEWVSGISWNSGSKGYADSVKGRFTISRDNAKNSLYLQMNSLRAEDTALYYCAKYGSGYGKFYHYGLDVWGQGTTVTVSSASTKGPSVFPLAPCSRSTSESTAALGCLVKDYFPEPVTVSWNSGALTSGVHTFPAVLQSSGLYSLSSVVTVPSSSLGTKTYTCNVDHKPSNTKVDKRVESKYGPPCPPCPAPPVAGPSVFLFPPKPKDTLMISRTPEVTCVVVDVSQEDPEVQFNWYVDGVEVHNAKTKPREEQFNSTYRVVSVLTVLHQDWLNGKEYKCKVSNKGLPSSIEKTISKAKGQPREPQVYTLPPSQEEMTKNQVSLTCLVKGFYPSDIAVEWESNGQPENNYKTTPPVLDSDGSFFLYSRLTVDKSRWQEGNVFSCSVMHEALHNRFTQKSLSLSPGK light: not shown | 15.1 nM | 46.6 nM | 
bsAb25442D bispecific antibody (REGN5459), anti-BCMA x anti-CD3 (bispecific antibody, human IgG4 S228P, kappa, Anti-BCMA arm from mAb21581, anti-CD3 arm and common light chain from mAb7221G20; also called mAb25442D; mAb25442D-A647) heavy 1: EVQLVESGGGLVQPGGSLRLSCAASGFTFSNFWMTWVRQAPGKGLEWVANMNQDGSEKYYVDSVKGRFTISRDNAKSSLYLQMNSLRAEDTAVYYCARDREYCISTSCYDDFDYWGQGTLVTVSSASTKGPSVFPLAPCSRSTSESTAALGCLVKDYFPEPVTVSWNSGALTSGVHTFPAVLQSSGLYSLSSVVTVPSSSLGTKTYTCNVDHKPSNTKVDKRVESKYGPPCPPCPAPPVAGPSVFLFPPKPKDTLMISRTPEVTCVVVDVSQEDPEVQFNWYVDGVEVHNAKTKPREEQFNSTYRVVSVLTVLHQDWLNGKEYKCKVSNKGLPSSIEKTISKAKGQPREPQVYTLPPSQEEMTKNQVSLTCLVKGFYPSDIAVEWESNGQPENNYKTTPPVLDSDGSFFLYSRLTVDKSRWQEGNVFSCSVMHEALHNHYTQKSLSLSLGK heavy 2: EVQLVESGGGLVQPGRSLRLSCAASGFTFDDYSMHWVRQAPGKGLEWVSGISWNSGSIGYADSVKGRFTISRDNAKNSLYLQMNSLRAEDTALYYCAKYGSGYGKFYYYGMDVWGQGTTVTVSSASTKGPSVFPLAPCSRSTSESTAALGCLVKDYFPEPVTVSWNSGALTSGVHTFPAVLQSSGLYSLSSVVTVPSSSLGTKTYTCNVDHKPSNTKVDKRVESKYGPPCPPCPAPPVAGPSVFLFPPKPKDTLMISRTPEVTCVVVDVSQEDPEVQFNWYVDGVEVHNAKTKPREEQFNSTYRVVSVLTVLHQDWLNGKEYKCKVSNKGLPSSIEKTISKAKGQPREPQVYTLPPSQEEMTKNQVSLTCLVKGFYPSDIAVEWESNGQPENNYKTTPPVLDSDGSFFLYSRLTVDKSRWQEGNVFSCSVMHEALHNRFTQKSLSLSPGK light: not shown |  |  | 3
